Patent publication US20230235040A1 (ALMIRALL S A, published 2023)

Assays:
[1] = target: T1, hu-IL-36α (human IL-36α, N-terminally truncated active form K6-F158) (human, UniProt Q9UHA7 6-158); assay: cell-based or functional assay
T1 sequence: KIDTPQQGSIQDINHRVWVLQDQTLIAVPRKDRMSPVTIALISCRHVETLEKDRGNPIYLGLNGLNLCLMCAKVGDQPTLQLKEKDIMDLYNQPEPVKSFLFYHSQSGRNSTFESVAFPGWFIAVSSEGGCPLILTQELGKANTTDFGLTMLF

[2] = target: T2, hu-IL-36β (human IL-36β, N-terminally truncated active form R5-E157) (human); assay: cell-based or functional assay
T2 chain: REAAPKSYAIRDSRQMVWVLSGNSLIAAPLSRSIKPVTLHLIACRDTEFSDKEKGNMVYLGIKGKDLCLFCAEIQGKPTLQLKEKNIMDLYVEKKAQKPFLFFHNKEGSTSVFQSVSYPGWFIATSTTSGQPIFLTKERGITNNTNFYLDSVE

[3] = target: T3, hu-IL-36γ (human IL-36γ, N-terminally truncated active form S18-D169) (human, UniProt Q9NZH8 18-169); assay: cell-based or functional assay
T3 sequence: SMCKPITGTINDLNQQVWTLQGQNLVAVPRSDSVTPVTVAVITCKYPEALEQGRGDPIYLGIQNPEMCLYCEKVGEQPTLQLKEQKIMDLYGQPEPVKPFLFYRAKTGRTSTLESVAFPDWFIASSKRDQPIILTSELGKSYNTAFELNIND

[4] = target: T4, cy-IL-36α-Avi (in-vivo biotinylated) (cynomolgus monkey, limits assumed, site-specifically biotinylated in vivo on the C-terminal AviTag (BirA)); assay: SPR (Biacore 8K), in-vivo biotinylated IL-36-Avi captured on CAP chip, bispecific IgG injected, 37°C
T4 construct: also called biotinylated cyno IL-36α-Avi
T4 chain: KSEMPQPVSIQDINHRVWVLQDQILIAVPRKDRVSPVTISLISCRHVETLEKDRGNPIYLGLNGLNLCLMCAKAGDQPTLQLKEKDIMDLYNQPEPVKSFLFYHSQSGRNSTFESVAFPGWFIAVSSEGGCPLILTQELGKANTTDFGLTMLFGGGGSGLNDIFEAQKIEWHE
Procedure: (§1) Surface plasmon resonance (SPR) analysis was used to determine the binding affinity for human and cynomolgus monkey IL-36 (“hu-IL-36” and “cy-IL-36,” respectively) using a BIACORE™ 8K instrument as described in Example 2. […] Briefly, a 1:4 dilution of Biotin CAPture Reagent (GE Healthcare) into HBS-EP buffer (0.01 M HEPES pH 7.4, 0.15 M NaCl, 3 mM EDTA, 0.005% Surfactant P20) was applied to a CAP sensor chip at 2 μL/min flow rate. For kinetics measurements, 1 nM biotinylated human and cyno IL-36α-Avi, IL-36γ-Avi; 0.8 nM biotinylated human and cyno IL-36β-Avi were captured at 10 μL/min to achieve 15-25 response units in the second flow cell (FC2). FC1 was kept as a reference. […] The sensorgram was recorded and subject to reference and buffer subtraction before data analysis with the BIACORE® 8K Evaluation Software (version 1.1.1.7442). […] Association rates (kₒₙ) and dissociation rates (koff) were calculated using a simple one-to-one Langmuir binding model. The equilibrium dissociation constant (KD) was calculated as the ratio of koff/kₒₙ.

[5] = target: T5, cy-IL-36β-Avi (in-vivo biotinylated) (cynomolgus monkey, site-specifically biotinylated in vivo on the C-terminal AviTag (BirA)); assay: as above
T5 construct: also called cy-IL-36J-Avi [sic]; biotinylated cyno IL-36β-Avi
T5 chain: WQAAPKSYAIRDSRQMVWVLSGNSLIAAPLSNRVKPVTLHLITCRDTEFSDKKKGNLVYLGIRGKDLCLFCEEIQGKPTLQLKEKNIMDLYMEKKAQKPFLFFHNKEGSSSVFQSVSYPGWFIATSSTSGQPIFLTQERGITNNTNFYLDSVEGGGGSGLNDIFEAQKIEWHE
Procedure: as §1

[6] = target: T6, hu-IL-36α-Avi (in-vivo biotinylated) (human, site-specifically biotinylated in vivo on the C-terminal AviTag (BirA)); assay: as above
T6 construct: also called biotinylated human IL-36α-Avi
T6 chain: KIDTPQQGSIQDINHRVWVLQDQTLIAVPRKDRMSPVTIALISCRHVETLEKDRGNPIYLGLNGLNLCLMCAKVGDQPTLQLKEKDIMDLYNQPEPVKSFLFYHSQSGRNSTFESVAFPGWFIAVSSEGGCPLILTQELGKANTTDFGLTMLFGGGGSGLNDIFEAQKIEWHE
Procedure: as §1

[7] = target: T7, hu-IL-36β-Avi (in-vivo biotinylated) (human, site-specifically biotinylated in vivo on the C-terminal AviTag (BirA)); assay: as above
T7 construct: also called biotinylated human IL-36β-Avi
T7 chain: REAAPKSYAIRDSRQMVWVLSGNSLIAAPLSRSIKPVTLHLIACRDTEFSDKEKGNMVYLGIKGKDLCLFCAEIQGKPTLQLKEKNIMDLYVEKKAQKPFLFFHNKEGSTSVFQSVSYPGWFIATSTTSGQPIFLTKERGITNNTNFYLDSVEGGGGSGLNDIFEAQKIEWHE
Procedure: as §1

[8] = target: T8, hu-IL-36γ-Avi (in-vivo biotinylated) (human, site-specifically biotinylated in vivo on the C-terminal AviTag (BirA)); assay: as above
T8 construct: also called biotinylated human IL-36γ-Avi
T8 chain: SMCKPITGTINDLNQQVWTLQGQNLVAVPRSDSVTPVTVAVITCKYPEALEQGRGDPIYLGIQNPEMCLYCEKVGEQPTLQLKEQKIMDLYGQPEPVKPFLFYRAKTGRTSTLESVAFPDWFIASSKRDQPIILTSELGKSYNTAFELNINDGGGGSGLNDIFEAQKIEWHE
Procedure: as §1

% inhibition of IL-8 production in HEKa cells at 8 nM antibody [1]: 100%
% inhibition of IL-8 production in HaCat cells at 8 nM antibody [1]: 100%
IC50, IL-36-mediated IL-8 production in HaCat cells [1]: ~0.38 nM
IC50, IL-36-mediated IL-8 production in primary human adult keratinocytes (HEKa) [1]: ~0.56 nM
% inhibition of IL-8 production in HEKa cells at 8 nM antibody [2]: 100%
% inhibition of IL-8 production in HaCat cells at 8 nM antibody [2]: 100%
IC50, IL-36-mediated IL-8 production in HaCat cells [2]: ~0.13 nM
IC50, IL-36-mediated IL-8 production in primary human adult keratinocytes (HEKa) [2]: ~0.11 nM
% inhibition of IL-8 production in HEKa cells at 8 nM antibody [3]: 100%
% inhibition of IL-8 production in HaCat cells at 8 nM antibody [3]: 100%
IC50, IL-36-mediated IL-8 production in HaCat cells [3]: ~1.1 nM
IC50, IL-36-mediated IL-8 production in primary human adult keratinocytes (HEKa) [3]: ~2.7 nM
Kd [4]: 2.57 nM
koff [4]: 0.000625 s⁻¹
kon [4]: 243000 M⁻¹ s⁻¹
Kd [5]: 2.51 nM
koff [5]: 0.000218 s⁻¹
kon [5]: 86900 M⁻¹ s⁻¹
Kd [6]: 1.95 nM
koff [6]: 0.000434 s⁻¹
kon [6]: 223000 M⁻¹ s⁻¹
Kd [7]: 1.84 nM
koff [7]: 0.000168 s⁻¹
kon [7]: 91400 M⁻¹ s⁻¹
Kd [8]: 1.63 nM
koff [8]: 0.000341 s⁻¹
kon [8]: 210000 M⁻¹ s⁻¹
B1: mAb2.10/mAb6_2.7 multispecific common light chain antibody (IgG, knobs-into-holes, N297G) (bispecific antibody)
heavy 1: not shown
heavy 2: not shown
light: ESVLTQPPSVSGAPGQRVTISCTGSSSNIGAHYDVHWYQQLPGTAPKLLIYGNDNRPSGVPDRFSGSKSGTSASLAITGLQAEDEADYYCQSYDYSLSGYVFGGGTKLTVLGQPKAAPSVTLFPPSSEELQANKATLVCLISDFYPGAVTVAWKADSSPVKAGVETTTPSKQSNNKYAASSYLSLTPEQWKSHKSYSCQVTHEGSTVEKTVAPTECS
notes: tags removed; also called mAb2.10/mAb6_2.7 IgG; anti-IL-36 multispecific antibody
